Measurements taken from US20220226430A1 (TEXAS A AND M UNIVERSITY SYSTEM, published 2022).

Biological target: Clostridium difficile toxin B (TcdB) from C. difficile strain VPI 10463 (ribotype 087) (Clostridium difficile strain VPI 10463, UniProt P18177 2-2366)
Assay: cell-based or functional assay

Clostridium difficile toxin B (TcdB) from C. difficile strain VPI 10463 (ribotype 087), sequence (P18177 2-2366): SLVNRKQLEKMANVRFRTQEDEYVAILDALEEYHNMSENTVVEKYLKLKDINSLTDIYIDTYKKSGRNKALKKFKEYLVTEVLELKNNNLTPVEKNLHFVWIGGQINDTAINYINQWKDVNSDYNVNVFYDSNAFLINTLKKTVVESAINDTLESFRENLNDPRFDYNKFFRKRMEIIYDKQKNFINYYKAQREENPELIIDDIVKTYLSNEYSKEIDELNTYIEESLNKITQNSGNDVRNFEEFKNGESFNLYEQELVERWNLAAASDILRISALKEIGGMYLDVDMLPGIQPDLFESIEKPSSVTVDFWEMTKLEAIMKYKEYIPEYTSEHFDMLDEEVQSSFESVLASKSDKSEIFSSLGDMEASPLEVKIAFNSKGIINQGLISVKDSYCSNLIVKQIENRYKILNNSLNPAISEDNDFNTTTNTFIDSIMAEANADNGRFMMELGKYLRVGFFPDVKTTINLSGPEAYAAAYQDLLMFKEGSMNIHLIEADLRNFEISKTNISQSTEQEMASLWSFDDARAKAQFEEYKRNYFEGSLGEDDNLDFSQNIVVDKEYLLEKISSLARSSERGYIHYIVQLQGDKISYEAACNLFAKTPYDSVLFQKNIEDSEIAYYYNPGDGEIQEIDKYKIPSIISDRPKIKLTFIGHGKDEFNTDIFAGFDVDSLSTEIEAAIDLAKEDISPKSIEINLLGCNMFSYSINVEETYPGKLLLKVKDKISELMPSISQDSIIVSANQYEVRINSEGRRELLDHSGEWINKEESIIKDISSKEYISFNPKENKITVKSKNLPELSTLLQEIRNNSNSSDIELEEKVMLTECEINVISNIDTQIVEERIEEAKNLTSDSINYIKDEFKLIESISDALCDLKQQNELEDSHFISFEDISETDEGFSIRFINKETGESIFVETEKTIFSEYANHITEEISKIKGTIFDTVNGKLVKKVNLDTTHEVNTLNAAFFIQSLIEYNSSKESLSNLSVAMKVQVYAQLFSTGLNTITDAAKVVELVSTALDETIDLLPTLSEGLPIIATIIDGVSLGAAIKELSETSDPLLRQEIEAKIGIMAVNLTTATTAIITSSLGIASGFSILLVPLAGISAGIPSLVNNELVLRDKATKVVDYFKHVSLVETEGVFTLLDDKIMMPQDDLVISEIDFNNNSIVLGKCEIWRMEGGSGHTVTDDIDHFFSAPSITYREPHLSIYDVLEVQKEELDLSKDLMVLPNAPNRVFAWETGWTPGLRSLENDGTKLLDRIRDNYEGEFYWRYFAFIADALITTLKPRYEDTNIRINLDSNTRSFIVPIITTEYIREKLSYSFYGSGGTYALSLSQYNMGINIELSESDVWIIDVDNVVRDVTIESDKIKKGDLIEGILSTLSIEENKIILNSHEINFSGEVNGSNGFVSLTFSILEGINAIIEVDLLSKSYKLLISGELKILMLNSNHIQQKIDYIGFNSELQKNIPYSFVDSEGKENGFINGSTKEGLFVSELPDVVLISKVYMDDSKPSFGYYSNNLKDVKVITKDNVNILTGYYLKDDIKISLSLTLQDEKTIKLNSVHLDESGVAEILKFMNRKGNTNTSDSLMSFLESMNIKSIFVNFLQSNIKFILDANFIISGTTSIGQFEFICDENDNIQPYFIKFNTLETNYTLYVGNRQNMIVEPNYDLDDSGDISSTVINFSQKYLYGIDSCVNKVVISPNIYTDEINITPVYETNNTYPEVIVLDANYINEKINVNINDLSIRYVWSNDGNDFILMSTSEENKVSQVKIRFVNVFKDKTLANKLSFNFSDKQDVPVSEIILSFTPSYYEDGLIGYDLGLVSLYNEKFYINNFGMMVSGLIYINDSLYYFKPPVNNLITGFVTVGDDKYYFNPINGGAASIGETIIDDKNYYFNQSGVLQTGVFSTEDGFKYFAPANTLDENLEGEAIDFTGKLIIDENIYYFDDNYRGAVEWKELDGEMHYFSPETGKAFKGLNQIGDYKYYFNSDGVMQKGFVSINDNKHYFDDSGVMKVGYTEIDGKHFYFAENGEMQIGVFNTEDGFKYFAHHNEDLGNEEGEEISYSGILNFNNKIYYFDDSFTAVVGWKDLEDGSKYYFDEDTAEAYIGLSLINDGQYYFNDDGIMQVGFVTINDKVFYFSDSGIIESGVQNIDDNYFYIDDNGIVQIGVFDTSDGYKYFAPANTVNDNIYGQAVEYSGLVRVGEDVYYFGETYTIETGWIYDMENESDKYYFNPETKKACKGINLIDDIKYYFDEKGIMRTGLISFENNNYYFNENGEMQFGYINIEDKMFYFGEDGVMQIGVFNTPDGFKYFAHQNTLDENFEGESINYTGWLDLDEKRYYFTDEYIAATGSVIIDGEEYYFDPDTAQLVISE

Binder	EC50 of TcdB neutralization (Vero cells, CellTiterGlo)	further results
DARPin 3.5B (designed binder, not shown: small tags and cut ends) GSDLGKKLLEAARAGQDDEVRILMANGADVNAKDTFGETPLHLAAWKGHLEIVEVLLKYGADVNASDLLGRTPLHLAAWRGHLEIVEVLLKNGADVNASDTGGYTPLHLAAALGHLEIVEVLLKHGADVNAQDKFGKTAFDISIDNGNEDLAEILQSSS	–	toxin-neutralization EC50: 13.3 nM
DARPin U3 (designed binder, not shown: small tags and cut ends) GSDLGKKLLEAARAGQDDEVRILMANGADVNADDRIGMTPLHLAAIGGHLEIVEVLLKNGADVNADDVHGRTPLHLAAGRGHLEIVEVLHGADVNAPDRWGRTPLHLAAHHGHLEIVEVLLKYGADVNAQDKFGKTAFDISIDSGNEDLAEILQSSS	–	toxin-neutralization EC50 (Vero cells): > 25 nM
DARPin 1.4E (designed binder, not shown: small tags and cut ends) GSDLGKKLLEAARAGQDDEVRILMANGADVNATDHLGVTPLHLAAVLGHLEIVEVLLKHGADVNAYDILGRTPLHLAAWRGHLEIVEVLLKYGADVNADDTSGTTPLHLAAGEGHLEIVEVLLKYGADVNAQDKFGKTAFDISIDNGNEDLAEILQSSS	3 nM	–
DARPin 1.2E (designed binder, not shown: small tags and cut ends) GSDLGKKLLEAARAGQDDEVRILMANGADVNAYDARGVTPLHLAAFSGHLEIVEVLLKNGADVNAIDVIGMTPLHLAAWIGHLEIVEVLLKHGADVNAVDRSGNTPLHLAAWLGHLEIVEVLLKYGADVNAQDKFGKTAFDISIDNGNEDLAEILQSSS	2.4 nM	–
